The values that follow come from the DeepSol protein solubility set.

The nature of this series: soluble on expression in E. coli; label from the status in PepcDB or PDB records.
Take “MSLICKRFALVGSGFIGQVHAASLARHEGSALTMVADAAPERAQALAARYGARAVTVSEAIHSDAIDAVLIASSTPSHAELLEAAARAGKAVYCEKPIDLSLARAREVVERVLPLNVPVTVGFNRRFDSSHQQLRRQLEQGLIGRVELVQMVCRASSMPPLDYLRSSGGQMRDQAIHFFDLLRFLTGDEVRTVAAMGAALALPDIAEFGDVDTSILMMQMRGGALAQLDNTRRTGHGYDERITLLGAEGALESGSQSPAGPTLWRGNQRIEPGLWPDWFSRVQGSYYQHLDAFIRSLNGETVADLPGLLDGLQAQAIAEAAVQSLQHGQFVAVDDEGHHHHHH”: the “soluble on expression in E. coli” value was “soluble”.

On to “GMTQTTPQPDPSRLRDELVRLHGKASPEWDSLVRLDPRFVDAYLKFAGVPQRRNHLDDKTRAFIALAADACATQLYAPGVARHIERALSFGATREELIEVLELVSTIGIHTSNVGVPVLLEVLEEEGLRKGAPPLDERRQKLKAEFETNRGYWHPTWEGLLELDPDLFEAYVEFSSVPWRTGVLSPKIKEFMYCAFDASATHLYVPGLKLHIRNALRYGATAEELMELLEIVSVTGIHGAELGAPLLEAALKRSGAAAGEPHA”, for which the “soluble on expression in E. coli” value is recorded as “soluble”. In the case of “MSLQFFDRKETMKFPSDFIEKYKDLLGAEAEEFFTSFDQEAVSAYRINPLKKQQKDYPDPIPGTPWGYYGKISGKSSDHATGLVYSQEPAAQMVAQVAAPSKGSRVLDLAAAPGGKSTHLLSYVDNTGLLVSNEIDFTRSKVLVENLERFGAKNVVVNHTSADKLAEVFKNYFDMIVFDGPCSGEGMFRKDPDAIQYWHKDYPSELAQLQKDILADGLKMLAPGGQLVYSTCTWSPEENEGVVAWILENYPDLELVAIPKLSGMSDGIDFPETARMYPHHFKGEGQFVAKFQDKRMPEQSCIKEGKTNLNKEQKQLWDDFVKKHLKLPLDGLLQVFGDNLYLLPRGLPDLSKVKIARNGLHLGIFKKKRFEPSFALGIALTSDEVVSSIELTQEQFAQYASGNVVTLDQTLENGWYQLLVDGNGFGFAKVIGNTLKNYYPKGLRFHEGHHHHHH”, the “soluble on expression in E. coli” value is given as “soluble”. Regarding “MESIFHEKQEGSLCAQHCLNNLLQGEYFSPVELSSIAHQLDEEERMRMAEGGVTSEDYRTFLQQPSGNMDDSGFFSIQVISNALKVWGLELILFNSPEYQRLRIDPINERSFICNYKEHWFTVRKLGKQWFNLNSLLTGPELISDTYLALFLAQLQQEGYSIFVVKGDLPDCEADQLLQMIR”, the “soluble on expression in E. coli” value is “soluble”. As for “MVSKAINSAMNQVDGIVVVGSPGRNLEIEDEKVTFIQSQISDVGKRYFIGLEKIDADYYFLLDYDDIFLSNKVNALKRVFENGKGGAAKESEYYNPSLNYISNVIRNRIDWHISEYSFDADFKKYLLKFVEKYSIPTHVSFDKILFAIMLNYGNMHVVNSKLTEIVSHGDSRMHAKRKRKFYSETYKVFEKFKSIPDLNQSCRQYVEYTYDLNRYLSEPTRENYEHLLASGKYPIPLYKRLYYKYYSIMKPE”, the “soluble on expression in E. coli” value is given as “not soluble”. In the case of “MGSDKIHHHHHHCWTYHYSEKPMNWENARKFCKQNYTDLVAIQNKREIEYLENTLPKSPYYYWIGIRKIGKMWTWVGTNKTLTKEAENWGAGEPNNKKSKEDCVEIYIKRERDSGKWNDDACHKRKAALCYTASCQPGSCNGRGECVETINNHTCICDAGYYGPQCQYVVQCEPLEAPELGTMDCIHPLGNFSFQSKCAFNCSEGRELLGTAETQCGASGNWSSPEPICQVVQCEPLEAPELGTMDCIHPLGNFSFQSKCAFNCSEGRELLGTAETQCGASGNWSSPEPICQETNRSFSKIKEGDYN”, the “soluble on expression in E. coli” value is “not soluble”. Under “MGSDKIHHHHHHMDGGFMQKKVLLVGLGVMGSRIAANFASAGKLAGVYDRNVDKAKNTASMLKVGFYRDLGEAVKNSDIIVTMLYDDRSVKEVYSQMEQGVQGKVFIDMSTISPDTSIEIAKRIKEKGGKMYDAPVIGTSIAVEKKALVVLVGGDLSGYDEVRDLISATANQVVYMGDNGSGLYAKLVNNLFLGSYMASLAEAVRFGRKNGIPDSTISDVLTKYSSARSPTSDLKVPKMISEDYSVQFSIKNMLKDMEIVDRMASEKRIALPVASLALQLFRYLMDSGYGEEDIAAIYRALR” stands “not soluble”; under “MVPVRLPLFGPSRAEGPMGPLPLRRKALGILYYLALEGPTRRERLADLLWGHRVALQNLRSELTHLRSFFGKEAFRGPVLTLPPGVELDRTPGSGEAMEGLEDLSPAFADWVYGWRTRLAPGEEGTPFPKRLEAVRPPALVILIGPPGSGQESLAQALAQKLGLPLRHGLGEGAGVFYLSEPFPPKEVGLALKPLPGRVLVVARSSFGEDPSFLLALRTRFPAEVTVVEQVPCLSWREAVGGPLRHLPFAEAARFYLRSGGRVEVLRELLAMGNPEALPQRVRAMVALEARHLPWEARKALEVLALHPGPFPEKLAWILGYGEALDELEHRGWLLYCEGRYRFSEPQFRPYLTAGFGEGERCRLHARLAEAWEALGDPVAAAYHRFYGEKGEALKAAQLGSWRQALAAHPGPNVPLPRSRVRKGKKRALETEEIHLVSFQGEVAEAVLELEEPLLLHLQGEVYQELPLGLGANLEAFPFRLRSLKGEGAVYFLPRANPGYYPWGAVLPQENLDHEFLLRPGQYLLELGTPGVVSLRLQAWETAPGNQEILVPLEMTESL”, “soluble”. As to “MSEYREIITKAVVAKGRKFTQCTNTISPEKKPSSILGGWIINHKYDAEKIGKTVEIEGYYDINVWYSYADNTKTEVVTERVKYVDVIKLRYRDNNYLDDEHEVIAKVLQQPNCLEVTISPNGNKIVVQAEREFLAEVVGETKVVVEVNPDWEEDDEEDWEDELDEELEDINPEFLVGDPEELEHHHHHH”, the “soluble on expression in E. coli” value is given as “soluble”. Under “MGHHHHHHSHPRRLAWCSIDWEQVCLLQRLGAGGFGSVYKATYRGVPVAIKQVNKCTKNRLASRRSFWAELNVARLRHDNIVRVVAASTRTPAGSNSLGTIIMEFGGNVTLHQVIYGAAGHPEGDAGEPHCRTGGQLSLGKCLKYSLDVVNGLLFLHSQSIVHLDLKPANILISEQDVCKISDFGCSEKLEDLLCFQTPSYPLGGTYTHRAPELLKGEGVTPKADIYSFAITLWQMTTKQAPYSGERQHILYAVVAYDLRPSLSAAVFEDSLPGQRLGDVIQRCWRPSAAQRP” stands “not soluble”; under “MGSDKIHHHHHHVRCLNEEIARKANREDECKGAFWEGRFKSQALLDEQALLACMMYVDLNPIRAGIADSLQSSDFTSIQERISALKQVNNTIISPQAPVQSAKNKPQTINKSLAKFDAATHSSQQTGIPFHFADYLELIDWTGRTIRHDKKGFIDNQRPKLLNELGIASDAWLSSAKDFRRQYSGISGRWDAMCAFKLQQGGKWCRGKSSCEALHPNQPLG”, “not soluble”. In the case of “RNDTECDLCGGDPEKKCHSCSCRVCGGKHEPNMQLLCDECNVAYHIYCLNPPLDKVPEEEYWYCPSCKTD” it was “soluble”.

“MGSDKIHHHHHHMKIVHVCETLKGGIESYLAEIIPYQVGLYGAENIHIIVPRDGDEGRSEFHEAVVWEFRRQGRSLSTMLNLCLAILKIVRTQAPDVIHLHSSFAGAIGRVVLMALRKETKVIYCPHGWSYLRQGAEHTNWLWKKIETMLALACNRIVCISEHEYNAALDAGLPKQKLELIVSGISDLVPDAPRNQAVSSEKRAIRLLFVGRLDYQKGVDLLFNALRLAARKDIELTVVGEAVVNSGWWAQVRGSCPENVQIIGWQERDALQIFYDLADALVVPSRWEGFGLVAVEALRAGTPVICNVAGALPDIVEHGISGYHLNFENEEKAVAFFSDLKLENLTLLRRAARERYTSVFKSQAMNEKMLQMYQAVMPHAETVGAAGFME”: the “soluble on expression in E. coli” value is recorded as “not soluble”. In the case of “MKVGGIEDRQLEALKRAALKACELSYSPYSHFRVGCSILTNNDVIFTGANVENASYSNCICAERSAMIQVLMAGHRSGWKCMVICGDSEDQCVSPCGVCRQFINEFVVKDFPIVMLNSTGSRSKVMTMGELLPMAFGPSHLN” it was “soluble”; in that of “MSLVTLGEGFEKARLTRFLEKFGGNEGSQFLYLKDYGHFYYQEEGEDQVLFGFQMKFNKCFVLADPIGQREKWTAATLAFMDQADLLGYQLVFYRISEEYVMNLHDCGFEFMKVGEEGLIQFDEPSTVNQTAWTETVTEKIAAEAADFQFEFYPETISDALYQELERVSADWSRNQKERYFIGGRLDPEYLKCSSVGLVRQKQTVIGFITGKEMEKGKSISYDLLRIRSDAPAFTREYLFTHFIETYQQQGYQLIDIGMAPLANVGESKYSFLKERFVNIFYKYSYQIYAFQDTRKRKEQYVTSWQPRYFAYPKRTSVLFAFVQLSLLITKGRHQSVSLVEEAMTEIEGHHHHHH”, “soluble”. Consider “MAHHHHHHMDCNTGMQLGQQFSKDVTMMHGGVPMSGAMSEQDALMVSAQVGGASPMMAAQWAQNFQQQQAMQAMRQQHEMEQAFQNSQQQQHAAVAQSGQMLGMAGPQQQQFMVQQQQQASMMNAAMMSQGMMTANMGFGMMMPRTQYQPLPNLSVLQPNQQQQQQQQLVNLAPAVQDSAWADQLSQQQWSTDYSQVQTFSAPGMEDKTVEERIKDSEFYKFMDQVKNKEVLIDEEKGELVQGPGPEVGVPEDAEYLRHWAEMEGLNMPEGVFQPPPPASAMMTPENGDPDTYIKEMDMAENDVEDWAQEYAEMQERLQKVTNNTDYPFEPNNPYMFHDFPFDEGMEMLQLGNLAEAALAFEAVCHKDSSNEKAWQILGTTQAENEKDGLAIIALNNARKLNIRNLEVHAALSVSHTNERNADAAMDSLKAWLVNHPEYEQLASVSIPPDAELDVQETFFFADPSRMREARTLYEAAIEMNPSDSQLFTNLGVLHNVAHEFDEAAECFRKAVALHPDDPKMWNKLGATLANGGHPDQALEAYNRALDINPGYVRAMYNMAVAYSNMSQYNMAARQIVKAIASQQGGTKPSGEGSIMATRNMWDLLRMTLNLMDRDDLVQLTYNEQLEPFVKEFGLEGHV”, for which the “soluble on expression in E. coli” value is “not soluble”. Under “TLLPQVQEVAYNQMANAGYEGAVVAIKPSTGEILAMASTPSYDPSAIVNPDTAEQTWAALNADPGNPLLNHATQETLPPGSTFKVITTAAGLNAGYGPGSMLTGQDRITLPDGITTLENYAGQTCAGSQNVTLATAFQYSCNTAFVQMGIDVGKEKFDEAAHAFGVNDRYDLGVDMAPGTIGDVSDPSARGQSSIGQRDVAMSVLHNAVVAATVANGGKRMEPHLVNRIVGQDLKVIKETKPHQINEAVTPEVAATLTDLMRLSERHTAGYTGADIASKTGTAEHGEDSRNSNPHAWYIAFGPSANADVAVAVVVKNGGDAGQAATGGSVAAPIGRAVIAAAQAALAARG” stands “not soluble”; under “AACKFLRRKCTSDCVFAPYFPPEEPTKFANVHRIFGASNVSKILHEVAPHQREDAVNSLAYEAEARLKDPVYGCVGAISVLQRQVLRLQRELEETNADLMRYAGCLGGETTSAYGGRRG”, “not soluble”. As for “PFSWRHYIVLSRQDLEEYGEEIIAHEYAHIMHKHFRDLLLAEICLLFQWFNPAMWLFRKELKTVHEFEADESVLKAGIDAKKYQLLLI”, the “soluble on expression in E. coli” value is on record as “not soluble”. Under “MGSDKIHHHHHHMKIKNDLIYDEIHALKADLYQPDNASKGLIIDIHGGGWFRGDKAKDQDLAEALVKDGFSVIVPNYRLTPDAYYPAPLDDMDTLYHWIKTSSKLFDSDRIAVVGSSAGGNMAVEMGIKYGLPIVSLSGILDIDDWLNEHTAVIAQPDHKQDFTNSKSSEINQTGQNDAFYKWFVTNYFNGNSDQYSLATPYKHVNSQPGPMFLANSLNEFVPTSGVLEMAKILTSKNVPYVEWMLPGTQHAKGYLEIVYPTVLNFLNQYI” stands “not soluble”.
